From the DeepSol protein solubility set

experiment: soluble on expression in E. coli; label from the status in PepcDB or PDB records

| Sequence | soluble on expression in E. coli |
| --- | --- |
| MDGYEEYTVLKEWEKTHKNEEIYSIRFGGNYMIDMKDGIKLSTDVYLPDFVDSAKKAPTILMRTPYGKENDKEIYYKYVQRGYAVVIQDVRGRNESEGKWEPMIHEREDGDSTINWIVSQEWSSGIVGMLGASYLGYVQWAAASSGNKHLKALVSIVTSGSPFIDIPRKGGAFVSGMLAWAFMVSRNKVDRSKMVRDDWDDVLNIRPIENIPVEALGYRIEFLEEWLKRVEKDEYWDLMDWHLQKDKINVPALVVSGWYDDNSMGTTEALDVIKDYEKGKRKAILGPWMHNSNTLRDINGISLGNSSLRYDLDYNYLLWFDKYLKGIENNIDTTAPVEYYSVGSNKWKTEE | not soluble |
| MDHEIPVRIVDNQEYMKVVRSILEEGKEVPLVVTGNSMMPFLIDRRDQVLIKRIERPLKKGDIAFFQRENGQYIMHRIHFMRKDDRTGENQFYFIGDGQKNIEGPIKETRIFGVITGVLRKGKYLDEHTFTWRFFENIWRYVIPFRPLIIKIYSLFKR | not soluble |
| MDHHHHHHHHMPRTTGMNVAVVGGGISGLAVAHHLRSRGTDAVLLESSARLGGAVGTHALAGYLVEQGPNSFLDREPATRALAAALNLEGRIRAADPAAKRRYVYTRGRLRSVPASPPAFLASDILPLGARLRVAGELFSRRAPEGVDESLAAFGRRHLGHRATQVLLDAVQTGIYAGDVEQLSVAATFPMLVKMEREHRSLILGAIRAQKAQRQAALPAGTAPKLSGALSTFDGGLQVLIDALAASLGDAAHVGARVEGLAREDGGWRLIIEEHGRRAELSVAQVVLAAPAHATAKLLRPLDDALAALVAGIAYAPIAVVHLGFDAGTLPAPDGFGFLVPAEEQRRMLGAIHASTTFPFRAEGGRVLYSCMVGGARQPGLVEQDEDALAALAREELKALAGVTARPSFTRVFRWPLGIPQYNLGHLERVAAIDAALQRLPGLHLIGNAYKGVGLNDCIRNAAQLADALVAGNTSHAP | soluble |
| MDIGDHGTHCAGIIAGFGPNVKIASLKHLSGNKFKDLDNWVSTMIKAINYADAMDIKIVNVSLGLHKSQIGDRPFDSQALNDAISNADLLFVTAAGNFNKNIDLPDDVIYPASCTAENIITVANTDKDDKLYESSNYGVISVDLAAPGTDIRSTIPTHLAGEGGPYDIKTGTSMSAPHVAGAAALLLSSNPSLTTQQLKDLILSSVDFLPDLQGKVATSGRLNVAKALRKIRTSVKIGDIDGNGEISSIDYAILKSHLINSNLTFKQLAAADVDGNGYVNSIDLAILQMYLLGKGGTSDIGKNRIYTYGDIDNNGIVDENDYILICNHINGTGQLSDASLFAADADGNNVIDQTDRILIEKYITGRITHLPVGNQ | not soluble |
| MDIGDNSKFDSATDLPVEQEQEQETEQEGEPEESSEQDLVEEVDWKDIPVPADAGPNMKWEFQEISDNFEYEAPADNKGSEFLEKWDDFYHNAWAGPGLTEWKRDRSYVADGELKMWATRKPGSDKINMGCITSKTRVVYPVYIEARAKVMNSTLASDVWLLSADDTQEIDILEAYGADYSESAGKDHSYFSKKVHISHHVFIRDPFQDYQPKDAGSWFEDGTVWNKEFHRFGVYWRDPWHLEYYIDGVLVRTVSGKDIIDPKHFTNTTDPGNTEIDTRTGLNKEMDIIINTEDQTWRSSPASGLQSNTYTPTDNELSNIENNTFGVDWIRIYKPVEKLEHHHHHH | soluble |
| MDIISVALKRHSTKAFDASKKLTPEQAEQIKTLLQYSPSSTNSQPWHFIVASTEEGKARVAKSAAGNYVFNERKMLDASHVVVFCAKTAMDDVWLKLVVDQEDADGRFATPEAKAANDKGRKFFADMHRKDLHDDAEWMAKQVYLNVGNFLLGVAALGLDAVPIEGFDAAILDAEFGLKEKGYTSLVVVPVGHHSVEDFNATLPKSRLPQNITLTEV | soluble |
| MDIKNSPSSLNSPSSYNCSQSILPLEHGSIYIPSSYVDSHHEYPAMTFYSPAVMNYSIPSNVTNLEGGPGRQTTSPNVLWPTPGHLSPLVVHRQLSHLYAEPQKSPWCEARSLEHTLPVNRETLKRKVSGNRCASPVTGPGSKRDAHFCAVCSDYASGYHYGVWSCEGCKAFFKRSIQGHNDYICPATNQCTIDKNRRKSCQACRLRKCYEVGMVKCGSRRERCGYRLVRRQRSADEQLHCAGKAKRSGGHAPRVRELLLDALSPEQLVLTLLEAEPPHVLISRPSAPFTEASMMMSLTKLADKELVHMISWAKKIPGFVELSLFDQVRLLESCWMEVLMMGLMWRSIDHPGKLIFAPDLVLDRDEGKCVEGILEIFDMLLATTSRFRELKLQHKEYLCVKAMILLNSSMYPLVTATQDADSSRKLAHLLNAVTDALVWVIAKSGISSQQQSMRLANLLMLLSHVRHASNKGMEHLLNMKCKNVVPVYDLLLEMLNAHVLRGCKSSITGSECSPAEDSKSKEGSQNPQSQ | soluble |
| MDISSTEIWDAIRRNSYLLYYQPKVDAKTNKIIGFEGLVRLKTATTILAPIDFFDDIVLLNATREMQDFVAETAIKQINQLGGRFSISINIPAHYVASSTYMTFLHDYVKEHLKYPECLEIEIIERGEITELAIADKNLRKIKDLGVKVSMDDFGKGYSSLAYLRSLPIDIVKTDMSFIALLKTDRKQQIIIRAIVNLCHDLGGKVVTEGVEDMEQVEKLREMKVDYFQGYYFSRPLPMEEIKQKYSIV | soluble |
| MDKEIKICPRCEQGYLYHAKPKYFSGEVILCDECYAMWLGDMKIFYGQYGKDFYDYHEFMKDKGIEEINMWEGELFDHPYYEDEKFK | not soluble |
| MDLEEQKKAVIEKLIREGYIKSKRVIDALLKVPREEFLPEHLKEYAYVDTPLEIGYGQTISAIHMVGMMCELLDLKPGMKVLEIGTGCGYHAAVTAEIVGEDGLVVSIERIPELAEKAERTLRKLGYDNVIVIVGDGTLGYEPLAPYDRIYTTAAGPKIPEPLIRQLKDGGKLLMPVGRYLQRLVLAEKRGDEIIIKDCGPVAFVPLVGKEGFQG | soluble |
| MDLHADSLDGTRSGPGLPTSDTKASFEAHVREKFNRMVEAVDRTVEKRIDKLTKELAQKTAELLEVRAAFVQLTQKKQEVQRRERALNRQVDVAVEMIAVLRQRLTESEEELLRKEEEVVTFNHFLEAAAEKEVQGKARLQDFIENLLQRVELAEKQLEYYQSQQASGFVRDLSGHVLTDISSNRKPKCLSRGHPHSVCNHPDLKSHFHPKGRNHLKKAKDDRASMQPAKAIHEQAESSRDLCRPPKKGELLGFGRKGNIRPKMAKKKPTAIVNII | not soluble |
| MDLMSFKEKEISKKDCLELFEDTENFFDVIKLADSIRKDIVGDTVTYVVNANINFTNVCSGTCKFCAFKAEHGDPNAFFLNPDEVAKKALEARKIGATEVCIQGGLLKEIDTYFQAEILKKVKKITEPYEEIVVHAFSPMEVKSAAENAGLSVNEALKILKENGLNSMPGTAAEILNDEIRSEICPTKLKTSEWIDVVTNAHKTGIKTTCTMMYGHIEENKHLAEHLSILRKIQKETGGFTEFVPLTFLHENAPLHHMERVKSGASGMLDLKTYAISRIFFKDYIKNIQTSWVKLGTKLSQVSLNCGANDIGGTLMEESISKAAGGSYGTFMSEEKLKDMILAVGRIPKQRNTAYEIIE | not soluble |
| MDLNVKQSGIHSVALHTTYFQNRSGKVYKRAEERYLRNDLSCGLAQCGTCKDFGTNPLLKIENPVRNAKVGRHALIVDSTSLIRFYDLFDSSLLRDLIVTQTVWEGVKAKAVPAYKKMNSLCYEDAKDRFHVFMNEFHCETFSESSKFEDLSRGEELLLSTALYLKTHWQKHNVAPVVLVFDEDSKKRMENHYQHVMYLKEYIQNLEDPGKQALLDQMAAYESSGNGNEKQIFDEYLSHDRIMEGIASGTIKRGNFSVSRENYREATVIIDDQLTSWFITGNNCNRAVNGDTVAVQLLPEDQWTAPEKKIRLRDVEEYVKTADDMGNEDEENDDENDEPKAKKSKKMTVSTAKVVGIIKRNWREYCGMLLPSTVKGARRHLFCPAERLIPRIRIETEQAETLSQQRIVVAIDHWPRDSKYPLGHYVRSIGEMGSRETENEVLLLEHDIPHAPFSESVLDCLPREEWEPDLTENRGPLPRVDLRDLTICSVDPLGCTDIDDALHCKQIGEDLFEVGVHIADVTHFVRPGTAIDDEAALRGTTVYLCDRRIDMLPCLLSSNLCSLRGEEERYAFSCIWTMTSSADIQSVKYHKSLIKSKAALTYEKAQEIIDDPKEQNDVALGLRGLMKLSKVLNARRTGNGALTLASSEVRFDMDWESRTPKKVMEKQHLDTHSMVEEFMLLANISVAEKILEEYPDCALLRRHPVPLKESYKPLVEAARHRGFEIIVESGKGLADSLNRCVDKKNPMLNRLLRMLTTRCMTQAVYFSAGKDGFSDIKLEEKKFFVLKTLNLPYRSCLCDDTETSIHLSRGLNDYFLFKKEKLHMSVGVLFKLFDCLGTVPVPQYQHFGLACAIYTHFTSPIRRYADVIVHRLLAAAIGADDIQSGLLNQARCTKICTNINYRHKQAQYAGRASVQLNVVRYFKGKVETCEGFVMGVRNNGIQVFVPKYGLESIIVLQTSAASGTTIDVEEMSVKVNGDVVIKELEPVTVRISVNEKNQQRPRVELQLIKPAIPGLSVDFDLSSSEGLGL | not soluble |
| MDLRTANVTRYILPLREGGSLPALAEADDEFKYVVKFRGAGHGTKALIAELIGGEIARTLGFRVPEIIFLNLDEAFGRTEADEEIQDLLQWSRGLNIGLHFLSGALTFDPVVHQVDGKTASQIVWMDAFLTNVDRTIKNTNMLMWHKELWLIDHGASLYFQHSWTNWQKQALTPFVQIKDHVLLPFADQLKETDMAFRQLLTSDKIWEIVNTVPDDWLNWTEGQETPQDLRDIYIQFLEERIKHSELFVNEAQHARKALI | not soluble |
| MDLSRINTWKSKQLKSFLSSKDAFKADINGHSVLYYAIADNNVRLVCTLLNAGALKNLLDNEFPLHQAATLEDTKIVKILLFSGMDDSQFDDKGNTALYYAVDSGNMQTVKLFVKKNWRLMFYGKTGWKTSFYHAVMLNDVSIVSYFLSEIPSPFDLAILLSCIHTTIKNGHVDMMILLLDYMTSTNTNSLLFIPDIKLAIDNKDIEMLQALFKYDINIYSVNLENVLLDDAEIAKMIIEKHVEYKSDSYTKDLDDVKNNKLDEIISKNEELRLMYVNYVRKNY | not soluble |
| MDLWLLANDESCLRHQAFWHSWQGPLVERQQSNNITLTDVLEGVHAYLQGHLDDFEIQEAFVTKELPLKLAQLRERWERYVVLNAELAARGRGGFERNRRDD | soluble |
| MDLYEKIKLLASEKKMSIRQLEETLGFGNGVINRWRKNTPGSDKLKKVADYFNISVDYLLGRTDNPNSNNLEEDEITTFFRVNTEDLTESEKDQLREELKEYLEFMKSRLKNK | soluble |
| MDMLNTLRDTLSSVQAELSTGVEKLRMNVSANIVAQQKVSTESVNEILNTSAGNELLQNFQNLITEVEENGAEGGRLANLCSTRMGRCQQMCKEKADAVMEIDEFLRNSVEFDKKIREINAQISKLTRFCNQTEQAMTYLEALCEVAHTEGEVDLIRQQAKSAATIVQIECESPSVLTSALRSRPEDAVKAQQEEVMLEEFLSSKNMQLP | not soluble |
| MDNARIDLRSKYYVKPKADHPWLTRRTQSHQQVKPPKLPKKKPDPDKKD | not soluble |
| MDNCLAAAALNGVDRRSLQRSAKLALEVLERAKRRAVDWHALERPKGCMGVLAREAPHLEKQPAAGPQRVLPGEREERPPTLSASFRTMAEFMDYTSSQCGKYYSSVPEEGGATHVYRYHRGESKLHMCLDIGNGQRKDRKKTSLGPGGSYQISEHAPEASQPAENISKDLYIEVYPGTYSVTVGSNDLTKKTHVVAVDSGQSVDLVFPVLEHHHHHH | soluble |
| MDNKVILVGGFHEIIELCEDNDIEIAGIIDNYLTNDTYWGYPIIGTDDKAKVLFETYKNVPVLITPDVPHVRYKLYHYYKSIGFQVASLISRDASISRSAIIGEGTIIQRGANLSSNIKIGQMVKVNTNANIMHDCLIGNYVTVAPNAVLLGKVEIDDKAYIGANATLLPSVKIGENVTVGAGSVVTKSVRPNTVVKGSPLEHHHHHH | soluble |
| MDNTRIMAAREAGVKVEANVHNFNDRLSSKERIRFKHDGIEPQTWGEAIQLRIRKQETQKGVPEGWSKRFPNGSIYDVKVLRK | not soluble |
